Experimental data published in the supplement of paper PMC10724198.
± gives the standard deviation of the averaged measurements.

Columns and labels:
Saccharomyces cerevisiae [1] = test: protein stability index of tFT-peptide fusion (C-terminal peptide) (PSI (0-1 scale)); higher = more stable (slower turnover)
Description: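 MPS profiling in S. cerevisiae of the tFT-X12 degron library: putative degron peptides plus stable controls, 12 aa, fused to the C-terminus of a sfGFP-mCherry timer. Cells are FACS-sorted into 8 mCherry/sfGFP bins and deep-sequenced. PSI runs from 0 (unstable) to 1 (stable). Backgrounds are wild type, das1Δ and doa10Δ at 30 °C, and wild type, das1Δ, cdc34-1 and cdc53-1 at 37 °C; 2-3 technical replicates each.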

Saccharomyces cerevisiae [2] = test: as above; settings: genetic background: wild type; temperature: 30 C
[3] = genetic background: cdc34-1, temperature: 37 C
[4] = genetic background: cdc53-1, temperature: 37 C
[5] = genetic background: das1 deletion, temperature: 30 C
[6] = genetic background: das1 deletion, temperature: 37 C
[7] = genetic background: doa10 deletion, temperature: 30 C
[8] = genetic background: wild type, temperature: 30 C
[9] = genetic background: wild type, temperature: 37 C
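Further: PSI is a weighted mean of sequencing reads over stability bins, variants kept only with over 10 reads, mCherry proximal and sfGFP distal, peptide attached via GGGS linker.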

Sequence | protein stability index (Saccharomyces cerevisiae [1]; [3]) | protein stability index (Saccharomyces cerevisiae [1]; [4]) | protein stability index (Saccharomyces cerevisiae [1]; [5]) | protein stability index (Saccharomyces cerevisiae [1]; [6]) | protein stability index (Saccharomyces cerevisiae [1]; [7]) | protein stability index (Saccharomyces cerevisiae [1]; [8]) | protein stability index (Saccharomyces cerevisiae [1]; [9]) | protein stability index (Saccharomyces cerevisiae [2])
ISVFLFAFFFIP | 0.447 ± 0.0098 | 0.553 ± 0.024 | 0.395 ± 0.03 | 0.531 ± 0.013 | 0.275 ± 0.016 | 0.306 ± 0.012 | 0.425 ± 0.01 | 0.356 ± 0.031
ISVQKRRAIEII | 0.586 ± 0.008 | 0.6379 ± 0.0021 | 0.496 ± 0.03 | 0.626 ± 0.0078 | 0.266 ± 0.008 | 0.305 ± 0.018 | 0.492 ± 0.03 | 0.451 ± 0.013
IVCFCFFLMFSL | 0.319 ± 0.063 | 0.34 ± 0.011 | 0.321 ± 0.021 | 0.417 ± 0.014 | 0.4222 ± 0.0033 | 0.317 ± 0.017 | 0.3766 ± 0.0011 | 0.378 ± 0.0077
IVVLCHVFLDLG | 0.048 ± 0.01 | 0.128 ± 0.033 | 0.125 ± 0.048 | 0.222 ± 0.019 | 0.074 ± 0.026 | 0.0933 ± 0.021 | 0.2008 ± 0.00035 | 0.126 ± 0.03
IWCQVGAFLVVF | 0.218 ± 0.0075 | 0.257 ± 0.0071 | 0.209 ± 0.024 | 0.352 ± 0.0047 | 0.18 ± 0.01 | 0.198 ± 0.02 | 0.337 ± 0.0084 | 0.307 ± 0.027
IYVLLDVNYHLP | 0.509 ± 0.024 | 0.527 ± 0.0074 | 0.379 ± 0.024 | 0.543 ± 0.014 | 0.3542 ± 0.0026 | 0.361 ± 0.026 | 0.5681 ± 0.0038 | 0.468 ± 0.042
IYVSVMLLRYRF | 0.41 ± 0.042 | 0.428 ± 0.018 | 0.342 ± 0.035 | 0.493 ± 0.0097 | 0.3455 ± 0.00077 | 0.331 ± 0.042 | 0.481 ± 0.03 | 0.465 ± 0.043
KCKIWFREVSMN | 0.658 ± 0.018 | 0.7475 ± 0.007 | 0.647 ± 0.015 | 0.729 ± 0.06 | 0.1748 ± 0.0015 | 0.216 ± 0.019 | 0.414 ± 0.027 | 0.32 ± 0.066
KGSFDLPTFSLF | 0.726 ± 0.026 | 0.776 ± 0.018 | 0.644 ± 0.026 | 0.769 ± 0.011 | 0.613 ± 0.015 | 0.64 ± 0.031 | 0.7445 ± 0.0073 | 0.504 ± 0.095
KICAVRVIMDWC | 0.459 ± 0.059 | 0.542 ± 0.012 | 0.383 ± 0.044 | 0.566 ± 0.017 | 0.351 ± 0.0053 | 0.379 ± 0.018 | 0.564 ± 0.014 | 0.4769 ± 0.0044
KIKVFHEMVLMC | 0.37 ± 0.059 | 0.587 ± 0.0097 | 0.446 ± 0.031 | 0.628 ± 0.017 | 0.114 ± 0.0016 | 0.139 ± 0.013 | 0.135 ± 0.043 | 0.18 ± 0.0043
KKNKIYKERKNI | 0.702 ± 0.17 |  | 0.6248 ± 0.0028 | 0.7245 ± 0.0029 | 0.203 ± 0.02 | 0.289 ± 0.13 | 0.462 ± 0.064 | 0.434 ± 0.046
KKNTQKKIKLSC | 0.629 ± 0.0068 | 0.733 ± 0.023 | 0.627 ± 0.035 | 0.728 ± 0.045 | 0.15 ± 0.032 | 0.171 ± 0.011 | 0.281 ± 0.021 | 0.358 ± 0.011
KKRYSEIFKKNG | 0.694 ± 0.057 | 0.728 ± 0.025 | 0.637 ± 0.016 | 0.769 ± 0.037 | 0.211 ± 0.033 | 0.254 ± 0.023 | 0.56 ± 0.039 | 0.408 ± 0.05
KLLLTCTFLVFP | 0.448 ± 0.022 | 0.545 ± 0.024 | 0.37 ± 0.032 | 0.555 ± 0.011 | 0.3361 ± 0.003 | 0.369 ± 0.02 | 0.523 ± 0.018 | 0.435 ± 0.0062
KNKRQKNTIRKQ | 0.669 ± 0.017 | 0.682 ± 0.056 | 0.654 ± 0.034 | 0.757 ± 0.089 | 0.2745 ± 0.00035 | 0.346 ± 0.025 | 0.573 ± 0.0086 | 0.463 ± 0.016
KQNKKHKKLKSN | 0.543 ± 0.051 | 0.718 ± 0.051 | 0.66 ± 0.026 | 0.694 ± 0.021 | 0.111 ± 0.0086 | 0.0929 ± 0.018 | 0.182 ± 0.036 | 0.182 ± 0.091
KRLRDFLVIMCS | 0.198 ± 0.024 | 0.2289 ± 0.0013 | 0.24 ± 0.03 | 0.358 ± 0.0079 | 0.112 ± 0.0067 | 0.118 ± 0.019 | 0.098 ± 0.02 | 0.196 ± 0.014
KTLCFLCRTRNS | 0.671 ± 0.025 | 0.73 ± 0.011 | 0.668 ± 0.027 | 0.76 ± 0.013 | 0.387 ± 0.014 | 0.433 ± 0.023 | 0.658 ± 0.017 | 0.52 ± 0.033
KVRVRTTCWRKL | 0.617 ± 0.039 | 0.686 ± 0.038 | 0.625 ± 0.015 | 0.7074 ± 0.0013 | 0.134 ± 0.0059 | 0.155 ± 0.014 | 0.347 ± 0.0065 | 0.255 ± 0.019

Sequence | protein stability index (Saccharomyces cerevisiae [1]; [3]) | protein stability index (Saccharomyces cerevisiae [1]; [4]) | protein stability index (Saccharomyces cerevisiae [1]; [5]) | protein stability index (Saccharomyces cerevisiae [1]; [6]) | protein stability index (Saccharomyces cerevisiae [1]; [7]) | protein stability index (Saccharomyces cerevisiae [1]; [8]) | protein stability index (Saccharomyces cerevisiae [1]; [9]) | protein stability index (Saccharomyces cerevisiae [2])
KYHLAAQLLVLL | 0.602 ± 0.022 | 0.649 ± 0.015 | 0.531 ± 0.022 | 0.6431 ± 0.0046 | 0.401 ± 0.011 | 0.408 ± 0.0063 | 0.556 ± 0.0067 | 0.459 ± 0.037
LAFAGRCGLYVC | 0.57 ± 0.064 | 0.679 ± 0.016 | 0.583 ± 0.026 | 0.693 ± 0.0075 | 0.289 ± 0.0035 | 0.291 ± 0.021 | 0.452 ± 0.0079 | 0.362 ± 0.053
LAGLFICTLISC | 0.159 ± 0.0021 | 0.176 ± 0.0055 | 0.203 ± 0.023 | 0.2775 ± 0.0013 | 0.185 ± 0.012 | 0.191 ± 0.029 | 0.2449 ± 0.00042 | 0.254 ± 0.071
LASCRIVVIYSI | 0.521 ± 0.029 | 0.52 ± 0.15 | 0.349 ± 0.036 | 0.5746 ± 0.0025 | 0.163 ± 0.0081 | 0.202 ± 0.022 | 0.364 ± 0.029 | 0.33 ± 0.068
LCFEQRYIGVLV | 0.305 ± 0.045 | 0.38376 ± 5e-05 | 0.279 ± 0.035 | 0.4433 ± 0.0021 | 0.227 ± 0.008 | 0.251 ± 0.03 | 0.393 ± 0.018 | 0.372 ± 0.0085
LCFVSTWVWSVG | 0.498 ± 0.055 | 0.5203 ± 0.0015 | 0.395 ± 0.032 | 0.58 ± 0.0085 | 0.368 ± 0.016 | 0.401 ± 0.01 | 0.569 ± 0.007 | 0.474 ± 0.037
LCWLCIRWSRVV | 0.368 ± 0.044 | 0.543 ± 0.023 | 0.443 ± 0.017 | 0.589 ± 0.013 | 0.0721 ± 0.015 | 0.0746 ± 0.012 | 0.085 ± 0.02 | 0.152 ± 0.0052
LDIFRKLVIVLC | 0.0767 ± 0.013 | 0.0777 ± 0.02 | 0.18 ± 0.033 | 0.2628 ± 0.00073 | 0.102 ± 0.027 | 0.107 ± 0.025 | 0.0878 ± 0.0015 | 0.169 ± 0.07
LEALRFTFYHFF | 0.683 ± 0.038 | 0.7891 ± 0.0068 | 0.615 ± 0.016 | 0.788 ± 0.029 | 0.203 ± 0.0091 | 0.222 ± 0.018 | 0.41 ± 0.014 | 0.34252 ± 7.1e-06
LEGRVLRIFCVT | 0.496 ± 0.0051 | 0.593 ± 0.03 | 0.49 ± 0.0052 | 0.651 ± 0.018 | 0.191 ± 0.011 | 0.212 ± 0.024 | 0.37 ± 0.048 | 0.263 ± 0.057
LFFRCVFRISFF | 0.274 ± 0.015 | 0.266 ± 0.0095 | 0.302 ± 0.03 | 0.387 ± 0.006 | 0.351 ± 0.027 | 0.254 ± 0.015 | 0.331 ± 0.0072 | 0.327 ± 0.0064
LFGIDIVITYLL | 0.31 ± 0.011 | 0.459 ± 0.064 | 0.315 ± 0.036 | 0.441 ± 0.017 | 0.284 ± 0.015 | 0.304 ± 0.019 | 0.392 ± 0.026 | 0.398 ± 0.011
LFILRPVVGVLN | 0.531 ± 0.034 | 0.53 ± 0.021 | 0.402 ± 0.035 | 0.555 ± 0.0077 | 0.368 ± 0.012 | 0.408 ± 0.016 | 0.528 ± 0.008 | 0.495 ± 0.053
LFIWFVSSPFYC | 0.517 ± 0.025 | 0.5998 ± 0.0054 | 0.451 ± 0.017 | 0.63068 ± 0.0006 | 0.3134 ± 0.0029 | 0.343 ± 0.033 | 0.547 ± 0.01 | 0.452 ± 0.023
LFIYSVCSYYYE | 0.31 ± 0.037 | 0.411 ± 0.053 | 0.269 ± 0.038 | 0.461 ± 0.049 | 0.227 ± 0.0051 | 0.283 ± 0.016 | 0.418 ± 0.068 | 0.349 ± 0.0058
LFRLPSPLLFFL | 0.559 ± 0.0067 | 0.611 ± 0.029 | 0.558 ± 0.025 | 0.6643 ± 0.0018 | 0.4911 ± 0.0026 | 0.429 ± 0.025 | 0.53 ± 0.016 | 0.484 ± 0.028
LFSAFFPLLFLS | 0.291 ± 0.022 | 0.353 ± 0.0036 | 0.436 ± 0.044 | 0.572 ± 0.02 | 0.107 ± 0.014 | 0.0848 ± 0.0096 | 0.0875 ± 0.00095 | 0.112 ± 0.013
LFYATRLLFLCI | 0.415 ± 0.034 | 0.432 ± 0.028 | 0.411 ± 0.053 | 0.5185 ± 0.0026 | 0.34042 ± 0.00025 | 0.3 ± 0.023 | 0.4454 ± 0.002 | 0.367 ± 0.0039
LGHSLVRFVYCF | 0.46 ± 0.023 | 0.498 ± 0.024 | 0.411 ± 0.025 | 0.538 ± 0.011 | 0.349 ± 0.0072 | 0.357 ± 0.029 | 0.468 ± 0.016 | 0.451 ± 0.0073
